# B1: recombinant T. congolense pyruvate kinase (enzyme, UniProt G0UYF4 1-499, looked up)
# chain: MSQLQHNIGLSIFEPVAKHRANRIICTIGPSTQSVEALKGLMKSGMSVARMNFSHGSYEYHQTTINNVRAAAAELGLHIGIALDTKGPEIRTGLFKDGEATYAPGDTVLVTTDPAFEKIGTKEKFYVDYPQLPNVVRPGGLIYVDDGVLTLRVLSKEDDCTLKCHVNNHHRLTDRKGINLPGCEVDLPAVSEKDRKDLQFGVEQGVDMIFASFIRTADQVREVRAALGEKGKDTLIISKIENHQGVQNIDAIIEASDGIMVARGDLGVEIPAEKVVVAQMCIISKCNVAGKPVICATQMLESMTTNPRPTRAEVTDVANAVFNGADCVMLSGETAKGKYPNEVVQYMVRICIEAQSATHDSVMFNSIKNLQKIPMSPEEAVCSSAVSSAFEVQAKAILVLSNTGRSARLISKYRPNCPIICATTRLLTCRQLNVTRSVESVYYDVDAHGEDNDREKRVQLGVDWAKTKGYVSAGDVMVIVHADHSVKGYPNQTRLVRVR
# notes: also called TcoPYK; source: E. coli BL21(DE3), purified (details in the Supplementary Information)
# Biological target: the molecule itself
# Experiment: SEC; analytical SEC of TcoPYK alone, ENRICH 650 10/30 column, BioRAD gel filtration standard
protein,measurement,value
B1,stoichiometry N,4

# From publication PMC5998082, “Development of a Nanobody-based lateral flow assay to detect active Trypanosoma congolense infections” (Scientific Reports, 2018)
